Percent max. bound data for 7 substances are collected here from US6693076.

The target of experiment [1] is IGF-I receptor in homogenized adult rat brain tissue (cerebral cortex and cerebellum) (rat) (UniProt P24062). Nature of the experiment: displacement of 20 pM 125I-[Thr59]IGF-I from homogenised rat brain tissue; competitor at 1 mM; SD 1.8.
For experiment [2] the target is unchanged. Nature of the experiment: displacement of 20 pM 125I-[Thr59]IGF-I from homogenised rat brain tissue; competitor at 100 µM; SD 21.
Experiment [3] shares this target. Nature of the experiment: displacement of 20 pM 125I-[Thr59]IGF-I from homogenised rat brain tissue; competitor at 100 µM; SD 6.
For experiment [4] the target is unchanged. The experiment is described as follows: displacement of 20 pM 125I-[Thr59]IGF-I from homogenised rat brain tissue; competitor at 100 µM; SD 20.
Experiment [5] has the same target. The experiment is described as follows: displacement of 20 pM 125I-[Thr59]IGF-I from homogenised rat brain tissue; competitor at 100 µM; SD 1.4.
For experiment [6], the target named is 125I-[Threonine59]IGF-I binding sites in adult rat brain sections (level of the cerebellum and brain stem) (rat). The experiment is described as follows: displacement of 0.01 nM 125I-[Thr59]IGF-I from rat brain sections; competitor at 200 nM.
Experiment [7] deals with IGF-I receptor in homogenized adult rat brain tissue (cerebral cortex and cerebellum) (rat) (UniProt P24062). Nature of the experiment: displacement of 20 pM 125I-[Thr59]IGF-I from homogenised rat brain tissue; competitor at 40 nM; SD 0.7.
The target of experiment [8] is 125I-[Threonine59]IGF-I binding sites in adult rat brain sections (level of the cerebellum and brain stem) (rat). The experiment is described as follows: displacement of 0.01 nM 125I-[Thr59]IGF-I from rat brain sections; competitor at 400 nM.
Experiment [9] shares this target. Nature of the experiment: displacement of 0.01 nM 125I-[Thr59]IGF-I from rat brain sections; competitor at 4 pM.
Experiment [10] has the same target. The experiment is described as follows: displacement of 0.01 nM 125I-[Thr59]IGF-I from rat brain sections; competitor at 400 pM.

IGF-I receptor in homogenized adult rat brain tissue (cerebral cortex and cerebellum) (rat), sequence (P24062 31-1370): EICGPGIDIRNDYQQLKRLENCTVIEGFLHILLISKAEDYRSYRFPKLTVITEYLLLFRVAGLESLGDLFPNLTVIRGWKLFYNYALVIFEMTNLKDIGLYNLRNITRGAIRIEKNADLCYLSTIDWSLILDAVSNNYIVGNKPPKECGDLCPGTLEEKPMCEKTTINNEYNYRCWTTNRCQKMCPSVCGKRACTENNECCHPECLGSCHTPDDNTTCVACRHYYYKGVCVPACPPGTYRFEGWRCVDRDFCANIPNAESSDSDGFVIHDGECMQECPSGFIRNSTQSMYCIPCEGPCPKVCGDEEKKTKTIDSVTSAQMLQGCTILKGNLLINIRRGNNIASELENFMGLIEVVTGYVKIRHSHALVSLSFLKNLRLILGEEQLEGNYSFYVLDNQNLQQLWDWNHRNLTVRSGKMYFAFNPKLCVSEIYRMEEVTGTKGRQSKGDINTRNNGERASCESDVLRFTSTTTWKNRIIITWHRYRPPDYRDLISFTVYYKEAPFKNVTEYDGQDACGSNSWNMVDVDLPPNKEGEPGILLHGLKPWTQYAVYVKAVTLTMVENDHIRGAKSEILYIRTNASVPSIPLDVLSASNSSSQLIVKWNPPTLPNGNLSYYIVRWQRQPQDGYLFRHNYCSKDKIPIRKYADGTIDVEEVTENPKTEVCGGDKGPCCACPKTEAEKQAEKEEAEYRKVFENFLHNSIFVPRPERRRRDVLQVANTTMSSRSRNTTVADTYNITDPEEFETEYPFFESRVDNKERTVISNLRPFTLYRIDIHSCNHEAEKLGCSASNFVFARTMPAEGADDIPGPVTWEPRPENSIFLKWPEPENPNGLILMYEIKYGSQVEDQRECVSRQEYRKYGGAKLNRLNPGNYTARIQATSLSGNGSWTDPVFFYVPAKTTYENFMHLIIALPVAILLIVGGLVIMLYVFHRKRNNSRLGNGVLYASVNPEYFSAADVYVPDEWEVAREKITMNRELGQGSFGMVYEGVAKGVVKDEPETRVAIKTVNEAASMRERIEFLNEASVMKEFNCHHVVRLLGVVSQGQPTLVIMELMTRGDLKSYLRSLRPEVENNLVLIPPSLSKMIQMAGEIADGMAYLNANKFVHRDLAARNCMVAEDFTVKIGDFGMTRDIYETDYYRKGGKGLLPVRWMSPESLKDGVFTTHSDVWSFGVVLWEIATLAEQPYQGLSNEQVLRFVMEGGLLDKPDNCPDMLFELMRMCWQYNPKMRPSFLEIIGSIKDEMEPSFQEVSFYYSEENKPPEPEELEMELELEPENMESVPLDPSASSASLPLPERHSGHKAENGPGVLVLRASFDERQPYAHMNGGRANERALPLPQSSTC
IGF-II (Somatomedin-A), sequence (P01344 25-91): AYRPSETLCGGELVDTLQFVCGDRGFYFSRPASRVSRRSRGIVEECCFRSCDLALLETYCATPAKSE

With IGF-II(33-40) (peptide), the percent max. bound in experiment [1] worked out at 92%. In the case of IGF-II(62-67) (peptide), the percent max. bound in experiment [2] was 83%. Regarding IGF-II(54-67) (peptide), the percent max. bound in [3] is 94%.

In turn, IGF-I(62-70) (peptide) displayed a percent max. bound in experiment [4] of 83%. IGF-I(30-41) (peptide) yielded a percent max. bound in experiment [5] of 94%. Consider “IGF-II (Somatomedin-A) (from UniProt P01344 25-91) (ligand)”, for which the percent max. bound in experiment [6] is 50%; in [7], 92.1%; in [8], 23%. As for “Human IGF-I (Somatomedin-C) (from UniProt P05019 49-118) (ligand)”, the percent max. bound stood at 91% in experiment [9] and 30% in experiment [10].
